Assay: soluble on expression in E. coli; label from the status in PepcDB or PDB records

Row | Sequence | soluble on expression in E. coli
1 | MAHHHHHHMLSDNDLTFHIPSAGLRRMDAWTAPNPSVFSHLHLVGNPDWMSSFSASPQVAAARPALAPPAPVAIEPSAPRPLAAPAAIDAPAPATKKSFLSMFYRGSSNTVSSSVMPPKTSSASFAPMSAPPKALDAFDTPMQRALPVDAQLSVEHLSKLDAVDATISAAPRREPPHPMALGSDTWNALSSVPVPAKTAAGSARLLAPPASIDAVFSRDSKPLWSDLSFASRFRSTAPTLEAFRNAPPAPILSTPPRSPQHQATSSTATVATAFIPVPPKPVTASPLRDTAVSSVEAAAPATMPAARREPRAMAHPLVPVGEDAPAVVTPLLKPVQEIPMVSSKSANLAPSTVNATPPVWGPEPLSLASREPEPSALALPTEFAKSISRPTMQEAQRDEARAAANVRNFISTLFSGSGSDEMDSSTAGNRKADGFNALEFVTNRRGAQAKASQPVDYSTFFNTSLFEDDHDEDSEEGLEKLRRVVLMVMQSAKNSEGTCVSQPTSQSCRRGGGVDATGVAALTTFPSKYTEFSASYQTANNNNADDNEWMQFAR | not soluble
2 | MAHHHHHHMLSEEEQATLLKYYSTVKLHETQMDQLAQAYWAATREERGEIAKVYAHTFVDPTFVQRLIFFHDYRMSLTAAGAGLSSSTGAAVGTGSSFAGQQSGSESANSPLMAGPPSSFMAESPTTAANHAPRRTHAQHLLRSTIQEHFPKLTGPGPYALQFGCVQSEKEREEVIELYSSQFLHPDPPELHRIVALPSSFSTRTRKRISGSYSWYLRCLATQELVCAVTVTVHQQETIRFAEMPLFATGVGYKKNGFGRLLNAALLAWCAEVGLEFIMISADVQAIPFWRHLGYRAMTRGEKNRIDFFYQHDCCKFKGAETMIGYCNVDRGNGSLSGGVGRRAFHSGGSTEVLHRSVRQVLAQLPRFVVEGPAKLPTE | soluble
3 | MAHHHHHHMLSHSSQLCSLWIESARVIRLDHCRCPGRLVSTGLGVSSEIRKTNLNGKSYTLDPVEMEPVFGVNRASDFSEKGGLCSTNETNEKNVLLSGGDIVSRNQKEVDKVERVALVAEKEHEEEEPLARNLHNTIGPTPYRVSWYDYGSVSPSKRFTYWAYRRLKELPTDWQEYYRRMLYQEISAARYVNQTWDCFMMVVDGYRKAKWILKKYGISIDESLIPKPYNNFWEETTHEERVWAHRRSHQMKELQALYRDEDELVFGAHTMDRREVSHGSIKNVQTGMQGGTPVHALDLPAPCESEIKTSPQIEDMSSALMSSIEDDKLWNPVLRSRIHTRRSREEVELYSFEDDEEDENSPS | soluble
4 | MAHHHHHHMMAIRNMLRKIIIKHGKVANAVWVPKRFINMNPTGNEEKVTQERNKRDYILSLDEALYLSKEMGIKTTTEIQKIIMRSPPFSPDMSPFLIDNFLSSANKDRHSDEIDQIDLKLKELQERDSNPEESEQGEDEGAVENSKINISHDREENIINKILIDKFNKKRGKTFIHNDMEWLEESEGIGTNKRSCAYVYIKRGSGIVKVNDEEDLYIRWPYFYNRMDVLEPFYVTNTSCVFDVFIKLKGGGISGQSKAARLAIGRALLNACPLIYDDLQQHHILYEDMRQKFPKMPGRKKSRAMKQWSKR | not soluble
5 | MAHHHHHHMMCLKLNLLDHVFANPFMNAAGVLCSTEEDLRCMTASSSGALVSKSCTSAPRDGNPEPRYMAFPLGSINSMGLPNLGFDFYLKYASDLHDYSKKPLFLSISGLSVEENVAMVRRLAPVAQEKGVLLELNLSCPNVPGKPQVAYDFEAMRTYLQQVSLAYGLPFGVKMPPYFDIAHFDTAAAVLNEFPLVKFVTCVNSVGNGLVIDAESESVVIKPKQGFGGLGGKYILPTALANVNAFYRRCPDKLVFGCGGVYSGEDAFLHILAGASMVQVGTALQEEGPGIFTRLEDELLEIMARKGYRTLEEFRGRVKTIE | not soluble
6 | MAHHHHHHMMRRVPITVSFDALDTLIQITRGLGYQYRSSYASFLLAHGIDLDATCPNATCEAVQELALKAIRDQVRAERAAWTRSANPKEMPIGGDTDEELRSFWARVLRQTYTCATLYDGAAADVVQRIEELWGDHHNEVRCFEDYVLFDQFSSTKAHSWCPEGLRTLQCLRKWNQVQMSCDESAVRPGLADTKPASDLDVFSPSSAAASPVLFLAAPPFVVSNMDPRIRGVFMQLGAFEAGESGEPPLLSRIISARDTGYAKPSPAGILTGVRDIAASYRAACQSCGACDAGVDVHRHVHVGDADADRVACERAGCHFVQCDPATGVTWGLLQAKLQELEALYGSAPLPH | not soluble
7 | MAHHHHHHMNDIYARRLAQATMFHQLMRCHGTLWAATQVTKEQMDYNFIREEFMRVNGRRAMPLLLGAAANENLHQLHLSHLSEHCAWGESARALAVQRQTPLSQRVAALGRMAETIHQVKTASTVQNLFNEQISCMEGISSFEEEPLIEGE | not soluble
8 | MAHHHHHHMNLNVSKDVNNYMKINGIIKKVDIKRYYNKKLNNWSYEDNAKEFDKKDEKEYGSKYEYNNKFINEEEKKDEEKKYRYDEKIHKGLYSEDNSTSMNNRYNNNESTYKMPKEILNRHEKIDLNSLPIDEEIINNLKIILNIEKLYMYQYIIYNEILKNSKHLLIYNKTGTGKTLSYLLPLIQKLINDKFDCNKKVLIITQNIYLCKQLYIYILSIYPTLNVCILSDEKESYNMNNNINNDIIVNIKRNNINPNDKENNDMCDEKYGIHFYLCTPNKLEYFIKNYKNKSRNDKNVMNNILNNINTIVIDEFDYIVEYRKNILNFFFKKDLFNEIHNNNNIRDKNRFNHDIFNKSNYNIYLFTANINEVIKKKIYEHLNGFVFFDFINGIKEHIQKQVAEQHNFNIDVLKNSENVVQLLNKENKNESLCNLNITHFVCKINSASKYKYVCYFLEEFFFHKQKISQKVYNDMVYDEYDKLNYRNMIPMEENKFVNNSEKEGNMKRSNADKINKCIIFANTKEEVEKLYEISLLKPHAVMMHSELLTIQKNENINLFKVGKKNVLITTDIISRGLDIDNVIFILNYSPPTSPNDYIHRSGRTGRGKEKGICLTMYHKYEYRNVDKIMKYTKNKFEVILCPK | not soluble
9 | MAHHHHHHMNNTNIVTFSPKLKYSINDVVHRDREVKEYHLQIDREASDILFFCTIKPKQVSELLEGEVKINLKREVGEQYSVASEDGTHVCDFSKGNLNISPSAGFNYKHDRSVSCIYLVIPNKLFLIKLPKLNIVTEQFLPNLVSCLSEYSFINFNLKHVEESDDSISLHLSFGDFKKNFNVSCAFDLSEYAVEPCSLGKKGIVTFYFNA | not soluble
10 | MAHHHHHHMNVFDCTLCVATTISQFLVDEVMKQVSLYGGFRHVVRCHGNPQEDFMDVKQSGEPIVLLIANQAGREALKFLCDDYHLPKEQRRVLWIHSISSGLDSYKLNELVKELQDIPLTNARGCYSSILAEHVMYSMLYFYRQTWRSLASRAEHKWDPFLMVELRGRKVGIIGYGDIGRASAKLLSAFGMEVTGVKRSASTKEVDEYGVRLVHGDAERERVLRESDFVVNILPGTEETKRLFNKELFSMMKPSAVYINIGRGITQNEDDLACALRDGVIRGASVDVFEREPLPAESPLWDISDDKILLTYHNAVLSDDFCKKAIDCFMLLARDFGSDGFASNVIQIDKFYCG | soluble
11 | MAHHHHHHMNVKVEEGHPYNSYAEIKKRKTKKKKYIQNGRAGNNVEDNVDDNVEDNVGNNVDDNVEDNVGNNVDDNVDNNVDDNVKNRLSPKNNEKSNPRHKKKNTSKSPICDGRKKDIEFHTLYESDEKNNMVSRRSSVESIGEEKDMKADVKKNDINYKVKLNTLMLQSYLHKSYDKVSNILKKTSQTFMKKSLSYETEKVDDKTGNNIQNNNNEKNETHGNINYDQDDFVQNFNKIFNNMIENPTNDLSEEEKKFFEQNSQCINKMLHENASCQKNKKEKILKKYKKKIIENKDISSLYDKFKELLDERTLLFKLIIYYKNINYNYKQHIDKIQHSYDILISENEQLNLNNITLKKHIDLFRKGDNIKRDDNEYVK | soluble
12 | MAHHHHHHMPADSTATAREVPIDTVALQLDAEMAQMRLQRQRYSTLCTRKNRLQAHVDELNAQGKDLTFQRQREQTRSAQELEHGLASSSTSLPEISRTPGDQAQLPAEVLGGALQELTACITERRELLQHLRDGSHDCLKLRDARFAKCSLSTVAGLDDHVASQSGIHASDTTAVIAGRGEAPTRCAARNPVSDSAVTSAAPASGLRHVEEGLAKAHQALCRGEEKALAEREYLLLLLQQCAQPQQLQQGRGRLACRQMAD | not soluble

— the DeepSol protein solubility set
